The text below walks through data of US20230257435A1, “Wound Healing Composition and Uses Thereof” (AGENCY FOR SCIENCE, TECHNOLOGY AND RESEARCH, priority 2020, published 2023).

The test system of one test is human skin explants. The test is described as follows: Human skin explant (EPIDERM-FT) punch wound healing. The settings on record: explants treated with Agrin siRNA #1; 20 μg sAgrin in ointment on days 2, 4, 6. The format is cell-based. From the text: Human epidermal keratinocyte cell line HaCaT was maintained in Dulbecco's modified Eagle's Medium (DMEM) (Gibco) containing 10% fetal bovine serum (FBS) with Penicillin and Streptomycin (Gibco Cat #15140148) antibiotics. The human foreskin normal fibroblasts (BJ) obtained from ATCC (ATCC® CRL-2522™) were passaged in DMEM (Gibco) with antibiotics. Normal primary adult epidermal keratinocytes (HEK) purchased from CELL Applications, Inc., (Cat #C-12003) were maintained in manufacturer provided keratinocyte growth medium as recommended. Primary keratinocytes from C57BL mouse strain were purchased from CellBiologics (Cat #C57-6066K) and maintained as per manufacturer recommended Epithelial cell growth medium (Cat #M6621, CellBiologics). The mouse primary dermal fibroblasts were isolated from C57BL mouse strain (Cat #m-GFP-6067), and cultured in complete fibroblast medium (CellBiologics, Cat #M2267). […]
Human skin equivalents and mice skin tissues were harvested, embedded, and subjected to routine histology using Hematoxylin and Eosin. […] Quantification of collagen as a marker for ECM deposition was done by picrosirius red staining of paraffin embedded mouse skin tissues, as per previously published protocol.

In a further test the test system is mouse skin punch wounds. Description: Punch-biopsy wound healing model, splinted. The format is in vivo. How it is done: Six to eight to week old female experimental ICR (nomenclature: IcrTac:ICR) mice purchased from InVivos were used for punch-biopsy wound healing in vivo assays. In the ex-vivo mouse skin explant assay, random ratios of male and female new born ICR mouse pups were used. Wherever possible, the experiments were performed taking into consideration an ethical and reductionist approach of animal usage. Animal studies were not performed in a blinded fashion. The animals were randomly assigned to different experimental groups. The number of animals used for each experiment is indicated in the legend as n=x mice per group. All animal experiments performed were done in accordance with experimental protocols reviewed by the Biological Resource Center (BRC), Agency for Science Technology and Research (A*STAR) under strict compliance to the Institutional Animal Care and Use Committee (IACUC) guidelines for ethical use of animal models in biological research.
The mice were housed under standard conditions of 21° C. and a 12 h light-dark cycle with free access to food. Subsequently, the mice were intraperitoneally (i.p.) anesthezised using Ketamine 100 mg/kg and Xylazin 10 mg/kg diluted in […] of saline solution. The fur was shaved from the base of the neck towards the back on the entire shoulder region. The skin was wiped with an alcohol swab and 10% povidone-iodine (Betadine) antiseptic solution. Circular symmetrical 4 mm wounds were inflicted on either side of the midline in the shoulder region using a sterile 4 mm punch biopsy needle (Integra Miltex, Integra York, P.A., Inc.). The wound skin was carefully removed using a scalpel and a pair of scissors to generate a full-thickness wound that were left open for topical administrations during the analysed time periods. For splinted wound healing models, a 10 mm transparent donut shaped nylon sheet (Grace Bio-Laboratories, Bend, Oreg.) was placed around the 4 mm wound. The splint was placed with the wound at the center, glued to the skin by adhesive (Krazy Glue®; Elmer's Inc.), and covered by Tegaderm dressing. The wounds were treated with different formulations based on either petroleum jelly (Vaseline), a thermoresponsive hydrogel (Pluronic F127-Sigma) or a commercially available skin ointment (Aquaphore-Beiersdorf, Inc.). For Vaseline based ointment cream preparation, 10 mg per cm^2 vaseline ointment was mixed with filtered PBS solutions containing the indicated amounts of Agrin (100 μg, 200 μg or 500 μg) and 100 μg BSA (w/w) were used and applied topically every two days. For siRNA mediated knockdown experiments, 75 nM of indicated siRNAs were incubated with lipofectamine in PBS. Subsequently, a 1:1 mixture of PBS (containing the siRNAs): Aquaphore was applied topically on the wound region every two days. A topical formulation comprising of 20% (w/w) Pluronic F127 (Sigma) was used to dissolve in sterile and 0.22μ filtered solution containing a final concentration of 200 μg/ml sAgrin or BSA. This mixture was dissolved overnight at 4° C. to ensure that liquid phase is achieved. The mixture forms a homogenous gel at temperatures above ˜20° C. and was dispersed topically to cover the wound. Wound closure was assessed using a Vernier caliper every alternate day. For both models, the animals were caged individually throughout the observed time-points of healing at the institutional animal facility. All wound healing animal experiments performed were done in accordance with experimental protocols reviewed by the Biological Resource Center (BRC), Agency for Science Technology and Research (A*STAR) under strict compliance to the Institutional Animal Care and Use Committee (IACUC) guidelines for ethical use of animal models in biological research.
Human skin equivalents and mice skin tissues were harvested, embedded, and subjected to routine histology using Hematoxylin and Eosin. For immunostaining, the tissues were fixed for 24 h in 10% neutral buffered formalin solution. […]

B1: sAgrin: C-terminus recombinant Agrin fragment containing 8 amino acid 'Z8' insert and LG3 domain (SEQ ID NO: 7), His-tagged, expressed in E. coli (protein)
chain: DTLAFDGRTFVEYLNAVTESELANEIPVEKALQSNHFELSLRTEATQGLVLWSGKATERADYVALAIVDGHLQLSYNLGSQPVVLRSTVPVNTNRWLRVVAHREQREGSLQVGNEAPVTGSSPLGATQLDTDGALWLGGLPELPVGPALPKAYGTGFVGCLRDVVVGRHPLHLLEDAVTKPELRPCPTP
modifications: His tag
For B1, in the test with human skin explants, the “wound healing and migration of keratinocytes (rescue)” value is “significantly rescued the wound healing and the migration of keratinocytes”. The “wound healing, Pluronic F127” value in the test on mouse skin punch wounds (200 ug sAgrin vs collagen or BSA, 12 days) is listed as “significantly accelerated wound healing when compared to similar concentrations of collagen or BSA”. Besides, in the test with mouse skin punch wounds (MMP12 siRNA, 200 μg sAgrin), the “pMLC expression in wound edges and beds under MMP12 depletion” value is recorded as “significantly attenuated in MMP12 depleted skin sections”. In addition, in the test with mouse skin punch wounds (MMP12 siRNA, 200 μg sAgrin, within 10 days), the “sAgrin accelerated healing rates and re-epithelialization under MMP12 depletion” value was “dramatically reduced upon MMP12 depletion”. Further, in the test on mouse skin punch wounds (day 10), the “CD-31 expressing blood vessels under MMP12 suppression” value is “failed to induce robust CD-31 expressing blood vessels”; the “sAgrin induced mature and mixed collagen fiber deposition under MMP12 depletion” value is given as “significantly diminished upon MMP12 depletion”. Moreover, in the test with mouse skin punch wounds (day 10, vs BSA and Collagen), the “deposition of collagen fibers in wound beds” value was “higher deposition of mature and mixed collagen fibers”. In addition, the “histology of wound area” value in the test with mouse skin punch wounds (day 10 post-wounding, vs BSA or Collagen) was “predominantly represented healed skin with the emergence of regenerated hair follicles”. The “number of blood vessels and their diameters” value in the test on mouse skin punch wounds (day 12 post-injury, vs BSA or Collagen) was “increased number of blood vessels and their diameters”.
